The record followed here is paper PMC2196876.

This assay concerns the target epitope-tagged full-length hVam6p (HA–hVam6p and Myc–hVam6p) (human). Nature of the assay: sucrose gradient sedimentation velocity with immunoprecipitation of fractions.

Broadly, the stoichiometry N is a count of units in the complex or per binding partner. Substance “epitope-tagged full-length hVam6p (HA–hVam6p and Myc–hVam6p) (natural protein)” displayed a stoichiometry N of 3.
